Patent US20140288000A1 (University of California, published 2014)

What follows are binders tested against human plasmin (human, UniProt P00747 97-810, limits assumed) (assay: cell-based or functional assay).
human plasmin, sequence (P00747 97-810 limits assumed): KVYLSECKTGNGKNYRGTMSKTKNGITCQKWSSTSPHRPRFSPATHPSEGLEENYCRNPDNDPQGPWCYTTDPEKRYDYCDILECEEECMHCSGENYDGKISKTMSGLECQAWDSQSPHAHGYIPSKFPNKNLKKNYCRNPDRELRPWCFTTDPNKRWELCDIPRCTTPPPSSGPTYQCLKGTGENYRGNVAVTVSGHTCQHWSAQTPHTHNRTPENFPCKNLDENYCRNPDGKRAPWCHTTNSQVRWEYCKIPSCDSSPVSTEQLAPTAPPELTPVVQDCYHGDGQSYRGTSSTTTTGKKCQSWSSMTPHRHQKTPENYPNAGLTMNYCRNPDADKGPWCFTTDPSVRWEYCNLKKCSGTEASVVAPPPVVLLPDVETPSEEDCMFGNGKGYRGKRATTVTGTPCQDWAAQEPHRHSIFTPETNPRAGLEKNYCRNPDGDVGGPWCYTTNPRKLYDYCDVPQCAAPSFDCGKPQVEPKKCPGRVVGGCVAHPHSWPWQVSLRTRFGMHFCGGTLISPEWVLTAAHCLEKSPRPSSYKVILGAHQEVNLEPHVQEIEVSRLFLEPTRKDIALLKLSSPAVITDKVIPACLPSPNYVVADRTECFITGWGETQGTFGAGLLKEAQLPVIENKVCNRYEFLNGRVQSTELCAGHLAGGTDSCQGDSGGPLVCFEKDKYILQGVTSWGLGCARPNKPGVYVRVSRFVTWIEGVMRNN

IC50 (nM), inhibition of plasmin activity on chromogenic substrate S2251 [nM] | Binder
0.8 | plasmin-inhibiting polypeptide comprising the amino acid sequence set forth in SEQ ID NO:4 (designed binder) NAEICLLPLDTGPCRARLLRYYYDRYTQSCRQFLYGGCEGNANNFYTWEACDDACWRIEKVPK
1.8 | plasmin-inhibiting polypeptide comprising the amino acid sequence set forth in SEQ ID NO:6 (designed binder) NAEICLLPLDYGPCRARLLRYYYDRYTQSCRQFLYGGCEGNANNFYTWEACDDACWRIEKVPK
3.4 | plasmin-inhibiting polypeptide comprising the amino acid sequence set forth in SEQ ID NO:5 (designed binder) NAEICLLPLDYGPCRARLLRYYYDRYTQSCRQFLYGGCEGNANNFYTWEACDDACWRIEK
1.8 | plasmin-inhibiting polypeptide comprising the amino acid sequence set forth in SEQ ID NO:3 (designed binder) NAEICLLPLDTGPCRARLLRYYYDRYTQSCRQFLYGGCEGNANNFYTWEACDDACWRIEK
